Measurements: US20150191546A1

Target: recombinant PR1/HLA-A*0201 monomer (human)
Assay: SPR (Biacore), antibody captured, peptide/HLA-A2 as analyte

- Kd: 162 nM
Substance: BB7.2 murine monoclonal antibody (HLA-A*0201 allele-specific mouse IgG2a)
